{"source": "patent US20150087807A1", "target": "synthetic mimetic peptide m1E41920", "assay": "indirect ELISA, m1E41920 peptide coated, nonlinear regression (GraphPad Prism)", "data": [{"binder": "recombinant murine single chain variable fragment of 1E4 (muscFv1E4) (scFv) scFv: ECLEESGGGLVRPGNSLKLSCVTSGFTFSNYRVHWLRQPPGKRLEWIAVIAVKSDNYGANYAESVKGRFTISRDDSKSSVYLQMNRLREEDTATYYCRSTVVVMGDYFAMDYWGQGTSVTVSSGGGGSGGGGSGGGGSDIELTQSPAILSVSPGERVSFSCRASQNIGTYIHWYQQRTNGSPRLLIKYASESVSGIPSRFSGRGSGTDFTLSISSVESEDIADYYCQQSNTWPYTFGGGTKLEIKRADAAPTVSKLAAALEHHHHHH", "values": [{"measurement": "EC50", "value": 73.1, "unit": "nM"}]}, {"binder": "humanized single chain variable fragment of 1E4 (huscFv1E4) (scFv) scFv: QCLVESGGGVVQPGRSLRLSCAASGFTFSNYRVHWVRQAPGKGLEWIAVIAVKSDNYGANYAESVKGRFTISRDNSKNTLYLQMNSLRAEDTAVYYCRSTVVVMGDYFAMDYWGQGTSVTVSSGGGGSGGGGSGGGGSDIVLTQSPAFLSVTPGEKVTITCRASQNIGTYIHWYQQKPDQAPKLLIKYASESVSGVPSRFSGSGSGTDFTFTISSLEAEDAATYYCQQSNTWPYTFGGGTKLEIKRADAAPTVSKLAAALEHHHHHH", "values": [{"measurement": "EC50", "value": 62.3, "unit": "nM"}]}]}
